For experiment [1], the target named is HLA-C*07:02. Put plainly: IEDB peptide-MHC binding, purified MHC/direct/fluorescence; filed as Kd, often an IC50 or EC50 that approximates it; ≥ and ≤ were set here for values at or beyond the usual limits of such assays.
In experiment [2] the target is HLA-C*05:01. The experiment is described as above.
Experiment [3] deals with HLA-B*35:01. In words: IEDB peptide-MHC binding, purified MHC/competitive/fluorescence; filed as Kd, often an IC50 or EC50 that approximates it; ≥ and ≤ were set here for values at or beyond the usual limits of such assays. The following applies: source organism: Influenza A virus (A/Kayano/57(H2N2)).
Experiment [4] has as its target HLA-B*07:02. Described as above.
In experiment [5] the target is HLA-B*51:01. The description is as above.
In experiment [6] the target is HLA-B*27:05. Described as above.
Experiment [7] deals with HLA-A*26:01. The description is as above. The settings on record: source organism: Homo sapiens.
In experiment [8] the target is HLA-B*18:01. The experiment is described as above. The following applies: source organism: Homo sapiens.
In experiment [9] the target is HLA-B*15:01. The experiment is described as above.
The target of experiment [10] is HLA-B*27:03. The description is as above. The settings on record: source organism: Homo sapiens.
Experiment [11] has as its target HLA-B*46:01. The description is as above. The following applies: source organism: Homo sapiens.
Experiment [12] has as its target HLA-B*39:01. The experiment is described as above. The settings on record: source organism: Homo sapiens.
The target of experiment [13] is HLA-B*57:01. The experiment is described as above. The following applies: source organism: Homo sapiens.
Experiment [14] has as its target HLA-C*03:03. In words: IEDB peptide-MHC binding, purified MHC/direct/fluorescence; filed as Kd, often an IC50 or EC50 that approximates it; ≥ and ≤ were set here for values at or beyond the usual limits of such assays.
Experiment [15] has as its target HLA-A*02:01. In words: IEDB peptide-MHC binding, purified MHC/competitive/fluorescence; filed as Kd, often an IC50 or EC50 that approximates it; ≥ and ≤ were set here for values at or beyond the usual limits of such assays. The following applies: source organism: Vaccinia virus WR.
For experiment [16], the target named is HLA-A*68:23. The experiment is described as above.
Experiment [17] has as its target HLA-B*83:01. Described as above.
Experiment [18] concerns the target HLA-C*14:02. Described as above.
In experiment [19] the target is HLA-B*45:06. The description is as above.
The target of experiment [20] is HLA-B*15:42. Described as above.
For experiment [21], the target named is HLA-A*01:01. Described as above. The following applies: source organism: Staphylococcus aureus subsp. aureus N315.
For experiment [22], the target named is HLA-B*15:02. The experiment is described as above.
Experiment [23] has as its target HLA-A*31:01. Put plainly: IEDB peptide-MHC binding, purified MHC/direct/fluorescence; filed as Kd, often an IC50 or EC50 that approximates it; ≥ and ≤ were set here for values at or beyond the usual limits of such assays. The following applies: source organism: Francisella tularensis subsp. holarctica LVS.
In experiment [24] the target is HLA-A*68:02. Described as above. The settings on record: source organism: Francisella tularensis subsp. holarctica LVS.
Experiment [25] addresses HLA-A*26:01. The experiment is described as above. The settings on record: source organism: Francisella tularensis subsp. tularensis FSC033.
Experiment [26] deals with HLA-B*18:01. The experiment is described as above. The settings on record: source organism: Francisella tularensis subsp. holarctica LVS.
In experiment [27] the target is HLA-B*58:01. The description is as above. The settings on record: source organism: Francisella tularensis subsp. holarctica LVS.
Experiment [28] concerns the target HLA-A*02:01. Described as above.
Experiment [29] concerns the target HLA-A*69:01. Described as above.
Experiment [30] deals with HLA-A*11:01. The description is as above. The following applies: source organism: Francisella tularensis subsp. holarctica LVS.
The target of experiment [31] is HLA-B*08:03. The experiment is described as above. The settings on record: source organism: Francisella tularensis subsp. tularensis FSC033.
In experiment [32] the target is HLA-B*08:01. Described as above. The settings on record: source organism: Francisella tularensis subsp. holarctica LVS.
Experiment [33] addresses HLA-A*01:01. The experiment is described as above. The settings on record: source organism: Francisella tularensis subsp. holarctica LVS.
Experiment [34] concerns the target HLA-B*57:01. The experiment is described as above. The following applies: source organism: Francisella tularensis subsp. holarctica LVS.
The target of experiment [35] is HLA-A*02:03. In words: IEDB peptide-MHC binding, purified MHC/competitive/fluorescence; filed as Kd, often an IC50 or EC50 that approximates it; ≥ and ≤ were set here for values at or beyond the usual limits of such assays. The settings on record: source organism: Francisella tularensis subsp. tularensis FSC198.
The target in experiment [36] is HLA-A*30:01. The description is as above. The following applies: source organism: Francisella tularensis subsp. tularensis FSC198.
The target in experiment [37] is HLA-A*26:02. Described as above. The following applies: source organism: Francisella tularensis subsp. tularensis FSC198.
The target of experiment [38] is HLA-A*02:11. In words: IEDB peptide-MHC binding, purified MHC/direct/fluorescence; filed as Kd, often an IC50 or EC50 that approximates it; ≥ and ≤ were set here for values at or beyond the usual limits of such assays. The settings on record: source organism: Hantaan virus Q32.
Experiment [39] concerns the target HLA-A*02:19. The experiment is described as above. The settings on record: source organism: Hantaan virus Q32.
The target in experiment [40] is HLA-A*02:12. Described as above. The settings on record: source organism: Hantaan virus Q32.
The target in experiment [41] is HLA-B*48:01. Put plainly: IEDB peptide-MHC binding, purified MHC/competitive/fluorescence; filed as Kd, often an IC50 or EC50 that approximates it; ≥ and ≤ were set here for values at or beyond the usual limits of such assays.
The mark [42] stands for this setting: source organism: Influenza A virus (A/Kayano/57(H2N2)).
The mark [43] stands for this setting: source organism: Staphylococcus aureus subsp. aureus N315.
The mark [44] stands for this setting: source organism: Francisella tularensis subsp. holarctica LVS.
Where [45] appears, read: source organism: Francisella tularensis subsp. tularensis FSC198.

The results in this text go back to the Immune Epitope Database (IEDB).

What is called Kd is the equilibrium constant for the complex coming apart.

The sequence HYNAFQWAI had a Kd in experiment [1] (source organism: Acanthisitta chloris) of 29 nM.

Turning to LPFHNVHPL, the Kd in experiment [2] (setting [42]) is at least 20000 nM; in experiment [1] (setting [42]), 2490 nM; in experiment [3], at most 0.1 nM; in [4] (setting [42]) it was 5.6 nM; in [5] (setting [42]), 202 nM.

For the sequence LRAAIELPL, the Kd in [6] (source organism: Mycobacterium tuberculosis H37Ra) amounted to 160 nM.

Consider LTDSSTLLV, for which the dissociation constant Kd in experiment [2] (source organism: Homo sapiens) is 8 nM; in experiment [7], at least 20000 nM; in [8], at least 20000 nM; in [9] (source organism: Homo sapiens), at least 20000 nM; in experiment [10] it was at least 20000 nM; in [5] (source organism: Homo sapiens), at least 20000 nM. For the same sequence, the dissociation constant Kd in [11], in [12] and in experiment [13] was at least 20000 nM in each case.

Consider FLHESDPMV, for which the Kd in experiment [14] (source organism: Vaccinia virus WR) is at least 20000 nM; in [15], 1.7 nM.

Regarding YTIGIGAFY, the Kd is at most 0.1 nM in experiment [16] (setting [43]); at least 5000 nM in experiment [17] (setting [43]); 9.4 nM in experiment [18] (setting [43]); at least 5000 nM in experiment [19] (setting [43]); at least 5000 nM in [20] (setting [43]); 1.5 nM in [21].

SQMPTSLNF showed a dissociation constant (Kd) in experiment [22] (source organism: Escherichia coli str. K-12 substr. MG1655) of 23.8 nM.

With EFKRRLKDL, the Kd in experiment [23], in experiment [24], in experiment [25], in [26], in experiment [27] and in experiment [28] (setting [44]) was at least 20000 nM in each case. Moreover, the Kd in experiment [29] (setting [44]) is at least 20000 nM; in experiment [30], at least 20000 nM; in [31], at least 20000 nM; in experiment [32], 52.3 nM; in [33] it was at least 20000 nM; in experiment [34], at least 20000 nM. The Kd in experiment [35], in experiment [9] (setting [45]), in experiment [36], in [4] (setting [45]) and in [37] was at least 20000 nM each time.

For WLVNTYQNY, the equilibrium dissociation constant (Kd) in [22] (source organism: Cryptosporidium parvum) is 80.2 nM.

Sequence SQDDNYFTL had a dissociation constant Kd in experiment [14] (source organism: Giardia lamblia P15) of 266 nM.

For FMFNDLLKL, the Kd in experiment [38] was at most 1 nM; in [39], 15 nM; in [28] (source organism: Orthohantavirus hantanense), at most 1 nM; in [40], 3 nM; in [14] (source organism: Orthohantavirus), 1250 nM.

In turn, EQRAGYQAF gave a Kd in experiment [22] (source organism: Vibrio vulnificus YJ016) of 117 nM.

MQALGHPIL: in experiment [41] (source organism: Photobacterium angustum S14), the dissociation constant (Kd) came to 175 nM.

For the sequence KRMGVQVQR, in [6] (source organism: Influenza A virus (A/environment/Hong Kong/437-10/99 (H5N1))), the dissociation constant Kd was 99.8 nM.

The sequence YGLERLAAM registered a dissociation constant (Kd) in experiment [1] (source organism: human gammaherpesvirus 4) of 18 nM.

In experiment [41] (source organism: Giardia lamblia ATCC 50803), VQHAPQVSL showed a Kd of 137 nM.

Regarding RLPKDFVDL, the dissociation constant Kd in [16] (source organism: Homo sapiens) was 67.7 nM; in experiment [17] (source organism: Homo sapiens) it was at least 5000 nM; in experiment [18] (source organism: Homo sapiens), 112 nM; in [19] (source organism: Homo sapiens) it was at least 5000 nM; in experiment [20] (source organism: Homo sapiens) it was at least 5000 nM.

With ALMDYGFRV, the Kd in [29] (source organism: Mycobacterium tuberculosis) was 42 nM; in experiment [14] (source organism: Mycobacterium tuberculosis variant bovis BCG str. Pasteur 1173P2), at least 20000 nM.
